Experimental data taken from patent US20240150440A1 (LUMEN BIOSCIENCE, published 2024).
Where two headings read alike, the source gives them in different places.

B1: PP912 MBP-5HVZ-S2b-G8-H6 (VHH)
VHH: QVQLVESGGGLVQPGGSLRLSCAASGSIQSYEAMHWFRQAPGKAREWVAVITWGDSTQYGDSVKGRFTISRDNAKNTVYLQMNSLKPEDTAVYYCAADVRQGYSSWGQGTQVTVSS
notes: Form: Dimer
B2: PP1105 MBP-5HVZ-PAPA-RN-20-H6 (VHH)
VHH: QVQLVESGGGLVQPGGSLRLSCAASGNYFEINKMHWFRQAPGKQREFVATIGSGGSTAYADSVKGRFTISRDNAKNTVYLQMNSLKPEDTAVYYCNALIYLADRRDGYYSYDYWGQGTQVTVSS
notes: Form: Dimer
B3: PP1101 MBP-5HVZ-PAPA-RN-16-H6 (VHH)
VHH: QVQLVESGGGLVQPGGSLRLSCAASGADFSSNAMHWFRQAPGKAREFVASIDSDKSGYYADSVKGRFTISRDNAKNTVYLQMNSLKPEDTAVYYCNAYSGTDNYGYDYWGQGTQVTVSS
notes: Form: Dimer
B4: MBP-5HVZ-R5A-D6-H6 (VHH, not shown: large carriers; small tags and cut ends)
VHH: QVQLVESGGGLVQPGGSLRLSCAASGNDWYINSAHWYRQAPGKEREFVASVSRGGSNNYRDSVKGRFTISRDNAKNTVYLQMNSLKPEDTAVYYCAALLETSSGDYTYWGQGTQVTVSS
B5: PP1106 MBP-5HVZ-PAPA-RN-21-H6 (VHH)
VHH: QVQLVESGGGLVQPGGSLRLSCAASGLQTSDNAMHWFRQAPGKNRELVAGLTSGTSRNYGDSVKGRFTISRDNAKNTVYLQMNSLKPEDTAVYYCAAFPDVGDASSIGFVYWGQGTQVTVSS
notes: Form: Dimer
B6: MBP-R5A-A5-H6 (VHH, not shown: large carriers; small tags and cut ends)
VHH: QVQLVESGGGLVQPGGSLRLSCAASGSAFATNGLHWFRQAPGKQREFVAGITSNGSINYKDSVKGRFTISRDNAKNTVYLQMNSLKPEDTAVYYCTALLMSYGGGEEYDYWGQGTQVTVSS
B7: MBP-5HVZ-R5A-A5-H6 (VHH, not shown: large carriers; small tags and cut ends)
VHH: QVQLVESGGGLVQPGGSLRLSCAASGSAFATNGLHWFRQAPGKQREFVAGITSNGSINYKDSVKGRFTISRDNAKNTVYLQMNSLKPEDTAVYYCTALLMSYGGGEEYDYWGQGTQVTVSS
B8: PP1108 MBP-5HVZ-PAPA-RN-23-H6 (VHH)
VHH: QVQLVESGGGLVQPGGSLRLSCAASGGEKSISAAHWYRQAPGKEREFVAAITAASTTSYADSVKGRFTISRDNAKNTVYLQMNSLKPEDTAVYYCTAVLYDSYDYWGQGTQVTVSS
notes: Form: Dimer
B9: PP1104 MBP-5HVZ-PAPA-RN-19-H6 (VHH)
VHH: QVQLVESGGGLVQPGGSLRLSCAASGIDDSIGAMHWFRQAPGKGREFVAALSGTGTTSYADSVKGRFTISRDNAKNTVYLQMNSLKPEDTAVYYCAAAFPAGGDYWGQGTQVTVSS
notes: Form: Dimer
B10: PP930 MBP-5HVZ-R2b-D4-H6 (VHH)
VHH: QVQLVESGGGLVQPGGSLRLSCAASGSYASIASMHWFRQAPGKQREFVAGLTSGGSRIYGDSVKGRFTISRDNAKNTVYLQMNSLKPEDTAVYYCTALILHYAGMYDYWGQGTQVTVSS
notes: Form: Dimer
B11: PP1099 MBP-5HVZ-PAPA-RN-12-H6 (VHH)
VHH: QVQLVESGGGLVQPGGSLRLSCAASGSSFEGNAVHWFRQAPGKNREFVATITTSTSYYYADSVKGRFTISRDNAKNTVYLQMNSLKPEDTAVYYCAARLKDRGPQSEYDYWGQGTQVTVSS
notes: Form: Dimer
B12: PP1109 MBP-5HVZ-PAPA-RN-25-H6 (VHH)
VHH: QVQLVESGGGLVQPGGSLRLSCAASGEDYSYNAAHWFRQAPGKEREWVAAINSGGGTYYADSVKGRFTISRDNAKNTVYLQMNSLKPEDTAVYYCAYLGALDRDGYDAWGQGTQVTVSS
notes: Form: Dimer
B13: MBP-5HVZ-R5A-D4-H6 (VHH, not shown: large carriers; small tags and cut ends)
VHH: QVQLVESGGGLVQPGGSLRLSCAASGSAMMINRTHWFRQAPGKEREGVAGITWQGSTYYADSVKGRFTISRDNAKNTVYLQMNSLKPEDTAVYYCNAVAPVHENENYWGQGTQVTVSS
B14: PP1115 MBP-5HVZ-PAPA-RN-31-H6 (VHH)
VHH: QVQLVESGGGLVQPGGSLRLSCAASGSTGSDYAMHWFRQAPGKDREWVAGISSYGSDSYGDSVKGRFTISRDNAKNTVYLQMNSLKPEDTAVYYCAALQASAGAGYYYDYWGQGTQVTVSS
notes: Form: Dimer
B15: MBP-R5C-E3-H6 (VHH, not shown: large carriers; small tags and cut ends)
VHH: QVQLVESGGGLVQPGGSLRLSCAASGSFFSINAVHWFRQAPGKEREFVASISVGDSRSYRDSVKGRFTISRDNAKNTVYLQMNSLKPEDTAVYYCAAQIYITTYELYDYWGQGTQVTVSS
B16: MBP-5HVZ-R5C-E3-H6 (VHH, not shown: large carriers; small tags and cut ends)
VHH: QVQLVESGGGLVQPGGSLRLSCAASGSFFSINAVHWFRQAPGKEREFVASISVGDSRSYRDSVKGRFTISRDNAKNTVYLQMNSLKPEDTAVYYCAAQIYITTYELYDYWGQGTQVTVSS
B17: PP1110 MBP-5HVZ-PAPA-RN-26-H6 (VHH)
VHH: QVQLVESGGGLVQPGGSLRLSCAASGSISSINSMHWYRQAPGKEREWVAAVSSYGSDYYADSVKGRFTISRDNAKNTVYLQMNSLKPEDTAVYYCAARTVTGFTYGDYWGQGTQVTVSS
notes: Form: Dimer
B18: PP1112 MBP-5HVZ-PAPA-RN-28-H6 (VHH)
VHH: QVQLVESGGGLVQPGGSLRLSCAASGSQFSHNLMSWFRQAPGKQREFVAAITSFGSTGYADSVKGRFTISRDNAKNTVYLQMNSLKPEDTAVYYCAALSSEDTSHYPRNYWGQGTQVTVSS
notes: Form: Dimer
B19: PP1103 MBP-5HVZ-PAPA-RN-18-H6 (VHH)
VHH: QVQLVESGGGLVQPGGSLRLSCAASGYYFQIVAMHWYRQAPGKEREGVAGITSTGSTYYGDSVKGRFTISRDNAKNTVYLQMNSLKPEDTAVYYCNAVSTDAQGAAEYWGQGTQVTVSS
notes: Form: Dimer
B20: MBP-5HVZ-R5A-B3-H6 (VHH, not shown: large carriers; small tags and cut ends)
VHH: QVQLVESGGGLVQPGGSLRLSCAASGQLDRSNAMAWFRQAPGKGREWVASITSGASTQYADSVKGRFTISRDNAKNTVYLQMNSLKPEDTAVYYCAADRYRAIQRTQYSWGQGTQVTVSS
B21: PP1113 MBP-5HVZ-PAPA-RN-29-H6 (VHH)
VHH: QVQLVESGGGLVQPGGSLRLSCAASGYILSENLTAWFRQAPGKAREVVATVTSGDYTNYDDSVKGRFTISRDNAKNTVYLQMNSLKPEDTAVYYCAAGTSDWEVKWSHWGQGTQVTVSS
notes: Form: Dimer
B22: PP1107 MBP-5HVZ-PAPA-RN-22-H6 (VHH)
VHH: QVQLVESGGGLVQPGGSLRLSCAASGSISEINLLHWFRQAPGKQREWVATMTSGGSTDYADSVKGRFTISRDNAKNTVYLQMNSLKPEDTAVYYCAADEFTKYGHGRYWGQGTQVTVSS
notes: Form: Dimer
B23: R5A-C5 (competition ELISA sample) (VHH)
VHH: QVQLVESGGGLVQPGGSLRLSCAASGDIFSINALHWFRQAPGKQREEVAAITSGGSTGYADSVKGRFTISRDNAKNTVYLQMNSLKPEDTAVYYCAAQQARGGLDSDYWGQGTQVTVSS
B24: MBP-5HVZ-R5C-E1-H6 (VHH, not shown: large carriers; small tags and cut ends)
VHH: QVQLVESGGGLVQPGGSLRLSCAASGYIFSATVMHWFRQAPGKQREGVASINSTGSSQYADSVKGRFTISRDNAKNTVYLQMNSLKPEDTAVYYCAADGADVVYGNRYWGQGTQVTVSS
B25: MBP-5HVZ-R2E-F4-H6 (VHH, not shown: large carriers; small tags and cut ends)
VHH: QVQLVESGGGLVQPGGSLRLSCAASGETFSSNAMHWFRQAPGKGREFVAAITSGGNDNYSDSVKGRFTISRDNAKNTVYLQMNSLKPEDTAVYYCNAPATEDTSHYPRNYWGQGTQVTVSS
B26: PP1154 MBP-5HVZ-PAPA-R5d-G1-H6 (VHH)
VHH: QVQLVESGGGLVQPGGSLRLSCAASGSIFGINDVHWFRQAPGKEREFVATITNGLSARYKDSVKGRFTISRDNAKNTVYLQMNSLKPEDTAVYYCAAQVYITTYELYDYWGQGTQVTVSS
notes: Form: Dimer
B27: PP1114 MBP-5HVZ-PAPA-RN-30-H6 (VHH)
VHH: QVQLVESGGGLVQPGGSLRLSCAASGIPASYLNMHWFRQAPGKQREWVAGAGGTNSNYYQDSVKGRFTISRDNAKNTVYLQMNSLKPEDTAVYYCAALDGAESYDYVYPVWGQGTQVTVSS
notes: Form: Dimer
B28: MBP-5HVZ-R5A-A1-H6 (VHH, not shown: large carriers; small tags and cut ends)
VHH: QVQLVESGGGLVQPGGSLRLSCAASGAELSYTAIHWFRQAPGKQREFVATINSGGSSYYADSVKGRFTISRDNAKNTVYLQMNSLKPEDTAVYYCTALLDSTYDYWGQGTQVTVSS
B29: PP1111 MBP-5HVZ-PAPA-RN-27-H6 (VHH)
VHH: QVQLVESGGGLVQPGGSLRLSCAASGPQFSSNAVSWFRQAPGKEREWVAGITSGGSTDYADSVKGRFTISRDNAKNTVYLQMNSLKPEDTAVYYCTAPSVSDADRRTRDYWGQGTQVTVSS
notes: Form: Dimer
B30: PP1102 MBP-5HVZ-PAPA-RN-17-H6 (VHH)
VHH: QVQLVESGGGLVQPGGSLRLSCAASGSMYSRAVMHWFRQAPGKEREGVASIGRTGDSYYADSVKGRFTISRDNAKNTVYLQMNSLKPEDTAVYYCAADNLDVVYGNRYWGQGTQVTVSS
notes: Form: Dimer
B31: PP1153 MBP-5HVZ-PAPA-R5d-D4-H6 (VHH)
VHH: QVQLVESGGGLVQPGGSLRLSCAASGSDFTINAMHWFRQAPGKQREFVATITSTSSTAYRDSVKGRFTISRDNAKNTVYLQMNSLKPEDTAVYYCAAFAVRDADTAGWTARDYWGQGTQVTVSS
notes: Form: Dimer

What was measured:
[1] = biological target: SARS-COV-2 Wuhan Reference RBD (SARS-CoV-2, UniProt P0DTC2 319-541); experiment: ELISA, RBD coated
[2] = biological target: T1, recombinant SARS-CoV-2 RBD with C-terminal AviTag (SARS-CoV-2, UniProt P0DTC2 319-541); experiment: ELISA, competition with coated ACE2-Fc for RBD [Cont. 9]
[3] = biological target: T1, recombinant SARS-CoV-2 RBD with …
[4] = biological target: T1, recombinant SARS-CoV-2 RBD with …; remark: listed apart in the source

Row | Binder | EC50 [1] [nM] | IC50 [2] [nM] | also measured
1 | B1 | 2.33 | – | –
2 | B2 | 1.24 | 7.2 | –
3 | B3 | 1.56 | 13.9 | –
4 | B4 | – | – | IC50 [3]: 223 nM; Kd [3]: 35 nM
5 | B5 | 2.52 | 9.7 | –
6 | B6 | – | – | Kd [3]: ~920 nM
7 | B7 | – | – | IC50 [3]: 4.4 nM; Kd [3]: 24.7 nM
8 | B8 | 2.61 | 380 | –
9 | B9 | 1.21 | 3.5 | –
10 | B10 | 3.18 | – | –
11 | B11 | 4.24 | – | –
12 | B12 | 1.06 | 29.6 | –
13 | B13 | – | – | IC50 [3]: 5.7 nM; Kd [3]: 21.1 nM
14 | B14 | 4.9 | 11.6 | –
15 | B15 | – | – | Kd [4]: ~1370 nM
16 | B16 | – | – | IC50 [4]: 9.2 nM

Row | Binder | EC50 [1] [nM] | IC50 [2] [nM] | also measured
17 | B17 | 3.5 | 156 | –
18 | B18 | 1.36 | 10.5 | –
19 | B19 | 2.4 | 53.3 | –
20 | B20 | – | – | IC50 [3]: 35.9 nM; Kd [3]: ~1200 nM
21 | B21 | 0.34 | 4.9 | –
22 | B22 | 0.27 | 3.9 | –
23 | B23 | – | – | IC50 [3]: 1.4 nM; Kd [3]: 7.04 nM
24 | B24 | – | – | IC50 [4]: 4.5 nM; Kd [4]: 6.13 nM
25 | B25 | – | – | IC50 [3]: 6.3 nM; Kd [3]: 11.4 nM
26 | B26 | 2.42 | – | –
27 | B27 | 1.14 | 3.4 | –
28 | B28 | – | – | IC50 [3]: 3.4 nM; Kd [3]: 29 nM
29 | B29 | 0.33 | 9.4 | –
30 | B30 | 0.97 | 2.4 | –
31 | B31 | 1.23 | – | –
